In patent US10800813 (Bicycle, dated 2020):
Numbered stars: 1 amine (or outer) side, 2 acyl side, 3 side chain; on linkers, the order of the positions; unused ones are H or OH. Bridge positions count the residues as written; N and C are the ends. Square brackets hold non-standard residues; d marks the D form. NMeW = CN[C@@H](Cc1c[nH]c2ccccc12)C(=O)O; TBMB = c1c(C[*:1])cc(C[*:3])cc1C[*:2]; β3hR = N=C(N)NCCC[C@H](N)CC(=O)O; Agb = N=C(N)NCC[C@H](N)C(=O)O; Agp = N=C(N)NC[C@H](N)C(=O)O; NMeC = CN[C@@H](CS)C(=O)O; NMeS = CN[C@@H](CO)C(=O)O; NMeA = CN[C@@H](C)C(=O)O

B1: Ac-(06-34-18) A2A3 (peptide)
peptide: Ac-CSAAARCLHQDLC-NH2
modifications: linker 1-7-13 via TBMB
SMILES: CC(=O)N[C@H]1CSCc2cc3cc(c2)CSC[C@H](NC(=O)[C@H](CCCNC(=N)N)NC(=O)[C@H](C)NC(=O)[C@H](C)NC(=O)[C@H](C)NC(=O)[C@H](CO)NC1=O)C(=O)N[C@@H](CC(C)C)C(=O)N[C@@H](Cc1c[nH]cn1)C(=O)N[C@@H](CCC(N)=O)C(=O)N[C@@H](CC(=O)O)C(=O)N[C@@H](CC(C)C)C(=O)N[C@H](C(N)=O)CSC3
B2: Ac-(06-34-18) A2Q3 (peptide)
peptide: Ac-CSAQARCLHQDLC-NH2
modifications: linker 1-7-13 via TBMB
SMILES: CC(=O)N[C@H]1CSCc2cc3cc(c2)CSC[C@H](NC(=O)[C@H](CCCNC(=N)N)NC(=O)[C@H](C)NC(=O)[C@H](CCC(N)=O)NC(=O)[C@H](C)NC(=O)[C@H](CO)NC1=O)C(=O)N[C@@H](CC(C)C)C(=O)N[C@@H](Cc1c[nH]cn1)C(=O)N[C@@H](CCC(N)=O)C(=O)N[C@@H](CC(=O)O)C(=O)N[C@@H](CC(C)C)C(=O)N[C@H](C(N)=O)CSC3
B3: Ac-(06-34-18) Scram 3 (peptide)
peptide: Ac-CAPWSRCLHQDLC-NH2
modifications: linker 1-7-13 via TBMB
SMILES: CC(=O)N[C@H]1CSCc2cc3cc(c2)CSC[C@H](NC(=O)[C@H](CCCNC(=N)N)NC(=O)[C@H](CO)NC(=O)[C@H](Cc2c[nH]c4ccccc24)NC(=O)[C@@H]2CCCN2C(=O)[C@H](C)NC1=O)C(=O)N[C@@H](CC(C)C)C(=O)N[C@@H](Cc1c[nH]cn1)C(=O)N[C@@H](CCC(N)=O)C(=O)N[C@@H](CC(=O)O)C(=O)N[C@@H](CC(C)C)C(=O)N[C@H](C(N)=O)CSC3
B4: Ac-(06-34-18) Scram 4 (peptide)
peptide: Ac-CWARSPCLHQDLC-NH2
modifications: linker 1-7-13 via TBMB
SMILES: CC(=O)N[C@H]1CSCc2cc3cc(c2)CSC[C@H](NC(=O)[C@@H]2CCCN2C(=O)[C@H](CO)NC(=O)[C@H](CCCNC(=N)N)NC(=O)[C@H](C)NC(=O)[C@H](Cc2c[nH]c4ccccc24)NC1=O)C(=O)N[C@@H](CC(C)C)C(=O)N[C@@H](Cc1c[nH]cn1)C(=O)N[C@@H](CCC(N)=O)C(=O)N[C@@H](CC(=O)O)C(=O)N[C@@H](CC(C)C)C(=O)N[C@H](C(N)=O)CSC3
B5: Ac-(06-34-18) NMeSer1 (peptide)
peptide: Ac-C[NMeS]WPARCLHQDLC-NH2
modifications: linker 1-7-13 via TBMB
SMILES: CC(=O)N[C@H]1CSCc2cc3cc(c2)CSC[C@H](NC(=O)[C@H](CCCNC(=N)N)NC(=O)[C@H](C)NC(=O)[C@@H]2CCCN2C(=O)[C@H](Cc2c[nH]c4ccccc24)NC(=O)[C@H](CO)N(C)C1=O)C(=O)N[C@@H](CC(C)C)C(=O)N[C@@H](Cc1c[nH]cn1)C(=O)N[C@@H](CCC(N)=O)C(=O)N[C@@H](CC(=O)O)C(=O)N[C@@H](CC(C)C)C(=O)N[C@H](C(N)=O)CSC3
B6: Ac-(06-34-18) NMeSer1, NMeAla4 (peptide)
peptide: Ac-C[NMeS]WP[NMeA]RCLHQDLC-NH2
modifications: linker 1-7-13 via TBMB
SMILES: CC(=O)N[C@H]1CSCc2cc3cc(c2)CSC[C@H](NC(=O)[C@H](CCCNC(=N)N)NC(=O)[C@H](C)N(C)C(=O)[C@@H]2CCCN2C(=O)[C@H](Cc2c[nH]c4ccccc24)NC(=O)[C@H](CO)N(C)C1=O)C(=O)N[C@@H](CC(C)C)C(=O)N[C@@H](Cc1c[nH]cn1)C(=O)N[C@@H](CCC(N)=O)C(=O)N[C@@H](CC(=O)O)C(=O)N[C@@H](CC(C)C)C(=O)N[C@H](C(N)=O)CSC3
B7: Ac-(06-34-18) NMeTrp2 (peptide)
peptide: Ac-CS[NMeW]PARCLHQDLC-NH2
modifications: linker 1-7-13 via TBMB
SMILES: CC(=O)N[C@H]1CSCc2cc3cc(c2)CSC[C@H](NC(=O)[C@H](CCCNC(=N)N)NC(=O)[C@H](C)NC(=O)[C@@H]2CCCN2C(=O)[C@H](Cc2c[nH]c4ccccc24)N(C)C(=O)[C@H](CO)NC1=O)C(=O)N[C@@H](CC(C)C)C(=O)N[C@@H](Cc1c[nH]cn1)C(=O)N[C@@H](CCC(N)=O)C(=O)N[C@@H](CC(=O)O)C(=O)N[C@@H](CC(C)C)C(=O)N[C@H](C(N)=O)CSC3
B8: Ac-(06-34-18) NMeAla4 (peptide)
peptide: Ac-CSWP[NMeA]RCLHQDLC-NH2
modifications: linker 1-7-13 via TBMB
SMILES: CC(=O)N[C@H]1CSCc2cc3cc(c2)CSC[C@H](NC(=O)[C@H](CCCNC(=N)N)NC(=O)[C@H](C)N(C)C(=O)[C@@H]2CCCN2C(=O)[C@H](Cc2c[nH]c4ccccc24)NC(=O)[C@H](CO)NC1=O)C(=O)N[C@@H](CC(C)C)C(=O)N[C@@H](Cc1c[nH]cn1)C(=O)N[C@@H](CCC(N)=O)C(=O)N[C@@H](CC(=O)O)C(=O)N[C@@H](CC(C)C)C(=O)N[C@H](C(N)=O)CSC3
B9: Ac-(06-34-18) NMeCys2 (peptide)
peptide: Ac-CSWPAR[NMeC]LHQDLC-NH2
modifications: linker 1-7-13 via TBMB
SMILES: CC(=O)N[C@H]1CSCc2cc3cc(c2)CSC[C@@H](C(=O)N[C@@H](CC(C)C)C(=O)N[C@@H](Cc2c[nH]cn2)C(=O)N[C@@H](CCC(N)=O)C(=O)N[C@@H](CC(=O)O)C(=O)N[C@@H](CC(C)C)C(=O)N[C@H](C(N)=O)CSC3)N(C)C(=O)[C@H](CCCNC(=N)N)NC(=O)[C@H](C)NC(=O)[C@@H]2CCCN2C(=O)[C@H](Cc2c[nH]c3ccccc23)NC(=O)[C@H](CO)NC1=O
B10: Ac-(06-34-18) Agb5 (peptide)
peptide: Ac-CSWPA[Agb]CLHQDLC-NH2
modifications: linker 1-7-13 via TBMB
SMILES: CC(=O)N[C@H]1CSCc2cc3cc(c2)CSC[C@H](NC(=O)[C@H](CCNC(=N)N)NC(=O)[C@H](C)NC(=O)[C@@H]2CCCN2C(=O)[C@H](Cc2c[nH]c4ccccc24)NC(=O)[C@H](CO)NC1=O)C(=O)N[C@@H](CC(C)C)C(=O)N[C@@H](Cc1c[nH]cn1)C(=O)N[C@@H](CCC(N)=O)C(=O)N[C@@H](CC(=O)O)C(=O)N[C@@H](CC(C)C)C(=O)N[C@H](C(N)=O)CSC3
B11: Ac-(06-34-18) Agp5 (peptide)
peptide: Ac-CSWPA[Agp]CLHQDLC-NH2
modifications: linker 1-7-13 via TBMB
SMILES: CC(=O)N[C@H]1CSCc2cc3cc(c2)CSC[C@H](NC(=O)[C@H](CNC(=N)N)NC(=O)[C@H](C)NC(=O)[C@@H]2CCCN2C(=O)[C@H](Cc2c[nH]c4ccccc24)NC(=O)[C@H](CO)NC1=O)C(=O)N[C@@H](CC(C)C)C(=O)N[C@@H](Cc1c[nH]cn1)C(=O)N[C@@H](CCC(N)=O)C(=O)N[C@@H](CC(=O)O)C(=O)N[C@@H](CC(C)C)C(=O)N[C@H](C(N)=O)CSC3
B12: Ac-(06-34-18) βhomoArg5 (peptide)
peptide: Ac-CSWPA[β3hR]CLHQDLC-NH2
modifications: linker 1-7-13 via TBMB
SMILES: CC(=O)N[C@H]1CSCc2cc3cc(c2)CSC[C@H](NC(=O)C[C@H](CCCNC(=N)N)NC(=O)[C@H](C)NC(=O)[C@@H]2CCCN2C(=O)[C@H](Cc2c[nH]c4ccccc24)NC(=O)[C@H](CO)NC1=O)C(=O)N[C@@H](CC(C)C)C(=O)N[C@@H](Cc1c[nH]cn1)C(=O)N[C@@H](CCC(N)=O)C(=O)N[C@@H](CC(=O)O)C(=O)N[C@@H](CC(C)C)C(=O)N[C@H](C(N)=O)CSC3

Biological target: T1, human plasma Kallikrein (human, UniProt P03952 20-638, limits assumed)
T1 construct: also called hPK; human PK
Experiment: enzyme inhibition assay

T1 sequence (P03952 20-638 limits assumed): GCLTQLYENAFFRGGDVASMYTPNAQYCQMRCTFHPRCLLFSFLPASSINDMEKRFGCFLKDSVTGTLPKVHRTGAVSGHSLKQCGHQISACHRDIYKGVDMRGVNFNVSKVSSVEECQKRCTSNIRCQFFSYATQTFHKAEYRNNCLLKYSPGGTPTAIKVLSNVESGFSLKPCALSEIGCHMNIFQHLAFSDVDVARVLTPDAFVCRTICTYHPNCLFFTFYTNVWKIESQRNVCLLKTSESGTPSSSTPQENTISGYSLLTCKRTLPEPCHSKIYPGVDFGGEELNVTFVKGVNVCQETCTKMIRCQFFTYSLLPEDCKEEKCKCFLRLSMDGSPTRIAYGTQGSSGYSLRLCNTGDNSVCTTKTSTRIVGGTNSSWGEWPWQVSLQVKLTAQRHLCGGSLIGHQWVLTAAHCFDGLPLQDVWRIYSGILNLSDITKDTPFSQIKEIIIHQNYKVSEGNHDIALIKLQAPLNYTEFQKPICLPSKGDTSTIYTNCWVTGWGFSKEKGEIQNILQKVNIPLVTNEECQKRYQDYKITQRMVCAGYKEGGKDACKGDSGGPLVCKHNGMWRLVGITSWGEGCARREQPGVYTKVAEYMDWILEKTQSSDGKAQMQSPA

B1 and B2 are the same in “fold reduction of binding against Ac-06-34-18(TMB)-NH2” value: roughly 100000 fold for the first, roughly 100000 fold for the second.

Biological target: T1, human plasma Kallikrein
Experiment: enzyme inhibition assay
Remark: another data set of the same source

B1 and B2 are within 1.5-fold of each other in Ki: 18500 nM for the first, 15800 nM for the second.

Going from B3 to B4, the Ki rises from 1890 nM to 67500 nM (36-fold).

Biological target: T1, human plasma Kallikrein
Experiment: enzyme inhibition assay
Remark: another data set of the same source

Compared with B5, B6 is 890-fold higher in Ki: 0.5 nM for the first, 444 nM for the second.

First: B7
Second: B8
The Ki of the first is 1.5-fold lower: 228 nM for the first, 343 nM for the second. The first binds more tightly here.

In the case of B9, the Ki is reported as 418 nM.

Biological target: T1, human plasma Kallikrein
Experiment: enzyme inhibition assay
Remark: another data set of the same source

Compared with B10, B11 is 21-fold higher in Ki: 83 nM for the first, 1770 nM for the second. The first binds more tightly here.

With B12 the Ki was 8.2 nM.
